Data on one molecule can be found in publication PMC3088361 (Biochemistry, 2011).

The experiment deals with HIV-1 YU-2 gp120 wild type (HIV-1 (isolate YU-2), UniProt P35961 32-498). The experiment can be described thus: SPR. For orientation: Surface plasmon resonance follows binding to a sensor surface in real time, without labels.

For CNLHWCQLRCKSLGLLGKCAGSFCACV (designed binder, C-terminal amide (-NH2); oxidized peptide) [[F5W]CD4F23], the binding result is recorded as “binds”.
